Assay results taken from PMC7613929 (Nature microbiology, 2022).
Several values for one entry are separate records, joined by “and”; a condition that tells them apart may be missing. Equal values may be shown once. Ends that are not written are not given here.

Key:
[1] = tested on: FtsA cysteine mutant E. coli strains; assay: In vivo cysteine cross-linking, Western blot; format: cell-based, Escherichia coli; details: Western blot against 3x HA-tag
Experimental: Strains were grown to exponential phase (OD600 = 0.2-0.4) in LB from overnight cultures, and 0.9375 OD units harvested using centrifugation at 4°C. Cells were kept on ice for the duration of the experiment, unless stated otherwise. Cells were washed in 500 μl PBS and resuspended in 50 μl PBS. 1.25 μl DMSO or cross-linker (dBBr: Dibromobimane, BMOE: Bismaleimidoethane, BMB: 1,4-bismaleimidobutane or BMH: Bismaleimidohexane) in DMSO (20 mM stock) were added. Samples were incubated for 10 min and quenched by adding 1 μl 2-ME (1.43 M stock in MPW). Cells were resuspended in 50 μl lysis buffer [1 mM EDTA (pH 7.4), 14.3 mM 2-ME, cOmplete EDTA-free Protease Inhibitor Cocktail (Roche), 0.25 U/μl Benzonase (Merck) and 0.5 U/μl ReadyLyse Lysozyme (Lucigen) in B-PER (ThermoFisher)]. Samples were incubated at RT for 5 min. 50 μl of 2x SDS sample loading buffer supplemented with 3 % v/v 2-ME were added. Samples were incubated at 95°C for 5 min, and the equivalent of 0.1875 OD units of cells was analysed by SDS-PAGE. Western blotting was performed using a Trans-Blot turbo (BioRad) with the corresponding Midi 0.2 μm PVDF transfer pack. Blots were run at 25 V and 2.5 A for 7 min. Membranes were blocked in PBS + 5 % milk for 30-40 min, washed in PBS and incubated with anti-HA-Peroxidase antibody (Roche 12013819001) (1/1000 in PBST + 5 % milk) at RT for 1-1.5h. Membranes were washed thoroughly with PBST, developed using the ECL Prime Western blotting detection kit (Amersham/Cytiva) and imaged on a Gel DocTM XR+ (Bio-Rad). Presented images were contrast-adjusted for display purposes.

FtsA = target: T1, FtsA (Escherichia coli, UniProt P0ABH0); assay: SPR, EcFtsN^1-32 truncations and mutations binding to immobilised FtsA; details: SPR equilibrium response; peptide 1:2 dilution series from 20 μM; mean ± SEM (n ≥ 2 for each construct); asterisk: maximum response fixed during fitting, approximate values; ND: not determinable; read-out: SPR K^eqd
T1 construct: made in house; host or cells: E. coli C41(DE3)
Experimental: SPR was performed using a Biacore T200 using CM5-sensor chips (Cytiva). Reference control and analyte channels were equilibrated in binding buffer. […] After reference and buffer signal correction, sensogram data were fitted using Prism 8.0 (GraphPad). Equilibrium response (Req) data were fitted to a single-site interaction model to determine Kd: (1) Req=(CRmax/C+Kd)+B, where C is the analyte concentration and Rmax is the maximum response at saturation and B is the background resonance.

[2] = target: VmFtsN^1-29-C-Atto 495 (Vibrio maritimus); assay: fluorescence polarisation; C-terminally truncated FtsA titrated (1:2 dilution series) into 20 nM Atto 495-labelled FtsN peptide; binding buffer with 0.05 % v/v Tween-20, RT; two-step model
[3] = target: Vibrio maritimus FtsA residues 1-396 (VmFtsA^1-396) (Vibrio maritimus); assay: crystal structure; co-crystallisation of VmFtsA^1-396 at 3 mg/ml with 2 mM ATP and 0.353 mM VmFtsN^1-29; crystallisation at pH 8.5
[4] = target: Vibrio maritimus FtsA residues 1-396 (VmFtsA^1-396) (Vibrio maritimus); assay: SPR; Biacore T200, FtsA immobilised on CM5 chip by amide coupling (2000-7800 RU), FtsN peptides injected 120 s in 1:2 dilution series; binding buffer (50 mM HEPES/KOH, 100 mM KAc, 5 mM MgAc2, pH 7.7); equilibrium response fitted to a single-site model
[5] = target: T2, Vibrio maritimus FtsA residues 1-396 (VmFtsA^1-396) (Vibrio maritimus); assay: FP; two-step model, second transition (polymerisation)
T2 chain: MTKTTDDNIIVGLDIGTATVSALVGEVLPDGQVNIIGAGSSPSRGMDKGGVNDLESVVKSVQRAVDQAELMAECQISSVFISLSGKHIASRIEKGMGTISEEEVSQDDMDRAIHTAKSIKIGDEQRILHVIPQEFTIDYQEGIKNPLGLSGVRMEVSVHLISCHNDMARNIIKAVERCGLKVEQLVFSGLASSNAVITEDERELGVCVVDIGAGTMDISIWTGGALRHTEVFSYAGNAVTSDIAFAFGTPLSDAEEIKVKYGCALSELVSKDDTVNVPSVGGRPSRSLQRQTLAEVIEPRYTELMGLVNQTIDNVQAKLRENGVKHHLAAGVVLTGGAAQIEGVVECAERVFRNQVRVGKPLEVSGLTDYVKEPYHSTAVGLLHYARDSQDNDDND

[6] = target: T2, Vibrio maritimus FtsA residues 1-396 …; assay: FP; two-step model, first transition (FtsN binding)
[7] = target: T2, Vibrio maritimus FtsA residues 1-396 …; assay: AUC; two-step model, second transition (polymerisation)
[8] = target: T2, Vibrio maritimus FtsA residues 1-396 …; assay: AUC; two-step model, first transition (FtsN binding)
[9] = target: the molecule itself; assay: co-sedimentation; co-pelleting: truncated FtsA at 1 mg/ml (~23 μM) with half, 1-, 3-, 6- or 10-fold molar FtsN peptide in binding buffer, 20°C, 20,000x g for 10 min, SDS-PAGE of supernatant and pellet
[10] = target: the molecule itself; assay: cryo-EM with 2D classification; EcFtsA at 0.15 mg/ml with 1 mM ATP on lipid monolayer, without FtsN peptide
[11] = ftsA^3x HA, Q155C mutant, exponential phase cells in PBS on ice, 10 min

`O=C1C=CC(=O)N1CCCCN1C(=O)C=CC1=O` [BMB, 1,4-bismaleimidobutane] was tested, and the “Covalent FtsA dimer after in vivo cross-linking, in words” value (“Covalent FtsA dimer” below) [1, 11] was “FtsA dimers can be detected”.

In the case of `O=C1C=CC(=O)N1CCCCCCN1C(=O)C=CC1=O` [BMH, bismaleimidohexane], the “Covalent FtsA dimer” value [1, 11] is reported as “FtsA dimers can be detected”.

`O=C1C=CC(=O)N1CCN1C(=O)C=CC1=O` [BMOE, bismaleimidoethane] was tested, and the “Covalent FtsA dimer” value ([1]; double cysteine mutants ftsA^3x HA, P98C, S118C and ftsA^3x HA, E199C, S252C) was “Signal for covalent FtsA dimers can be detected for both double cysteine mutants” and the “Covalent FtsA dimer” value [1, 11] was “but not with BMOE”.

`Cc1c(CBr)n2c(CBr)c(C)c(=O)n2c1=O` [dBBr, dibromobimane] was tested, and the “Covalent FtsA dimer” value ([1]; ftsA^3x HA, D123C mutant, exponential phase cells in PBS on ice, 10 min) was “Signal for a FtsA dimer can be detected”.

“MAQRDYVRRSQPAPSAASASTSRKKQRNLPAV [EcFtsN^1-32, ΔRK2]” showed a Kd (FtsA) of roughly 166 µM.

“MAQRDYVRRSQPAPSRRKKSTSASAQRNLPAV [EcFtsN^1-32, ΔRK3]” was tested, and the Kd (FtsA) was roughly 80.6 µM.

In the case of “Vibrio maritimus FtsA residues 1-396 (VmFtsA^1-396) (domain or fragment)”, the fold weaker for the first binding event than EcFtsA^1-405 with FtsN^(1-32-C-Atto 495) [2] is reported as 4 fold and the stoichiometry N [3] is reported as 4.

“Vibrio maritimus FtsN cytoplasmic peptide, residues 1-29 (VmFtsN^1-29)” was tested, and the fold weaker than the EcFtsA^1-405-EcFtsN^1-32 interaction [4] was 3 fold.

Molecule MANRDYVRRGKGTSRRPAKKKTSGKKPWRC (Atto 495 (maleimide) on the added C-terminal cysteine) [VmFtsN^1-29-C-Atto 495] has a Kd [5] of 10 µM, a Kd [6] of 0.062 µM and a Kd [7] of 55 µM. For the same molecule, the Kd [8] was 0.018 µM.

B1: E. coli FtsA residues 1-405 (EcFtsA^1-405) (domain or fragment, UniProt P0ABH0 1-405, looked up)
chain: MIKATDRKLVVGLEIGTAKVAALVGEVLPDGMVNIIGVGSCPSRGMDKGGVNDLESVVKCVQRAIDQAELMADCQISSVYLALSGKHISCQNEIGMVPISEEEVTQEDVENVVHTAKSVRVRDEHRVLHVIPQEYAIDYQEGIKNPVGLSGVRMQAKVHLITCHNDMAKNIVKAVERCGLKVDQLIFAGLASSYSVLTEDERELGVCVVDIGGGTMDIAVYTGGALRHTKVIPYAGNVVTSDIAYAFGTPPSDAEAIKVRHGCALGSIVGKDESVEVPSVGGRPPRSLQRQTLAEVIEPRYTELLNLVNEEILQLQEKLRQQGVKHHLAAGIVLTGGAAQIEGLAACAQRVFHTQVRIGAPLNITGLTDYAQEPYYSTAVGLLHYGKESHLNGEAEVEKRVTASV
notes: also called C-terminally truncated FtsA; source: E. coli C41(DE3), purified (HisTrap, SUMO cleavage with GST-SENP1, SEC); not shown: 6H-SUMO, N-terminal, cleaved
B1: binds [9].

B2: E. coli FtsA (EcFtsA), full length (natural protein, UniProt P0ABH0 1-420, looked up)
chain: MIKATDRKLVVGLEIGTAKVAALVGEVLPDGMVNIIGVGSCPSRGMDKGGVNDLESVVKCVQRAIDQAELMADCQISSVYLALSGKHISCQNEIGMVPISEEEVTQEDVENVVHTAKSVRVRDEHRVLHVIPQEYAIDYQEGIKNPVGLSGVRMQAKVHLITCHNDMAKNIVKAVERCGLKVDQLIFAGLASSYSVLTEDERELGVCVVDIGGGTMDIAVYTGGALRHTKVIPYAGNVVTSDIAYAFGTPPSDAEAIKVRHGCALGSIVGKDESVEVPSVGGRPPRSLQRQTLAEVIEPRYTELLNLVNEEILQLQEKLRQQGVKHHLAAGIVLTGGAAQIEGLAACAQRVFHTQVRIGAPLNITGLTDYAQEPYYSTAVGLLHYGKESHLNGEAEVEKRVTASVGSWIKRLNSWLRKEF
notes: FtsA, E. coli, full length; also called WT; source: E. coli C41(DE3), purified (HisTrap, chitin resin with intein cleavage, SEC); not shown: intein-CBD-12H, C-terminal, cleaved
For B2, the “stoichiometry N” value [10] was 13 and 12.
